Laboratory results published in patent US5541288A, “Peptide having elastase inhibitory activity and producing method thereof” (Nissin Shokuhin Kabushiki Kaisha, priority 1993, dated 1996).
Where two headings read alike, the source gives them in different places.

T1: human neutrophil elastase (Homo sapiens, UniProt P08246)
T1 sequence (P08246 30-267): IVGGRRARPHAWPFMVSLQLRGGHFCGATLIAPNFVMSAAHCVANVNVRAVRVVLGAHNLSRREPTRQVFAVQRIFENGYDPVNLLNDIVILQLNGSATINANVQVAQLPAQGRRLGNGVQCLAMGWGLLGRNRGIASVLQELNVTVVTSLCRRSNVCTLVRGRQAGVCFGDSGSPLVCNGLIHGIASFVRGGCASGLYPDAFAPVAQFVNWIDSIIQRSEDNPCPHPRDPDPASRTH

T2: bovine pancreas trypsin (Bos taurus, UniProt P00760)
T2 construct: purchased Washington Biochemicals; host or cells: bovine pancreas
T2 sequence (P00760 24-246): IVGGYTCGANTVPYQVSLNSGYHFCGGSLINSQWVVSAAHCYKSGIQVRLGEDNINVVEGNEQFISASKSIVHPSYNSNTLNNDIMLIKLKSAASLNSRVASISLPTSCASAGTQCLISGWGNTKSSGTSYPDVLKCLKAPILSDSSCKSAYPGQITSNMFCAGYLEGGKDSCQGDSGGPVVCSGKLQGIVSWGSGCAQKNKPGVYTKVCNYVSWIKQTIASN


Key:
Assay type in all cases: biochemical
[1] = target: T1, human neutrophil elastase; assay: Determination of Ki value against human neutrophil elastase (fluorogenic substrate MeOSuc-Ala-Ala-Pro-Val-7AMC); settings: 30° C., pH 7.5, purified peptides with recovered activity, read-out: Inhibitory Activity against Human Neutrophil Elastase Ki
Method: Determination of Ki value of the samples of purified peptides of Example 7 against human neutrophil elastase was accomplished as follows.
10 μl of solution of human neutrophil elastase (Attends Research), (the concentration of which was adjusted to 25 μM with the following buffer), and 10 μl of test sample (the concentration of which was appropriately adjusted) were added to buffer containing 30 μl of 100 mM Tris-HCl (pH 7.5), 500 mM NaCl, 0.01% BSA, and left for 20 minutes at 30° C. Then, 200 μl of MeOSuc-Ala-Ala-Pro-Val-7AMC solution (Cambridge Research Biochemicals) containing 1% dimethyl-sulfoxide (hereinafter referred to as "DMSO") was added to the mixture to adjust the concentration thereof to 0.2 mM, 0.3 mM and 0.4 mM, and reacted at 30° C. Fluorescence at 450 nm excited at 365 nm was measured over 0 to 3 minutes with a spectrophotofluorometer (F-3000, HITACHI), and an initial reaction velocity was calculated. Ki value was determined by preparing a graph having a vertical axis of the reciprocal of initial reaction velocity and a horizontal axis of sample concentration, and then plotting on the graph lines for each of the three substrate concentrations and reading the intersection point of the three lines so obtained.

bovine pancreas trypsin = target: T2, bovine pancreas trypsin; assay: Determination of Ki value against bovine pancreas trypsin (substrate Bz-DL-Arg-pNA); settings: 30° C., pH 8.0
Method: Furthermore, the Ki value against trypsin was determined as follows.
Firstly, buffer containing 20 μl of 10 mM CaCl2, 50 mM Tris-HCl (pH 8.0) was mixed with 10 μl of test sample (1.2~6 μM) and 10 μl of 4.2 μM bovine pancreas trypsin solution (prepared by dissolving bovine pancreas trypsin in 1 mM HCl; Washington Biochemicals), and incubated at 30° C. for three minutes. 110 μl of 1M Tris-HCl (pH 8.0) buffer containing 100 mM CaCl2 was added to this solution, then 350 μl of any of 0.6 mM, 1.2 mM and 2.3 mM Bz-DL-Arg-pNA.HCl (Nakaraitesk) solution (containing 10% DMSO) was added, and reacted at 30° C. Change on absorbance at 405 nm over time was recorded, and the initial reaction velocity of the enzyme was determined therefrom. Then, the Ki value against trypsin was determined according to a procedure which was similar to the procedure for human neutrophil elastase above.

[2] = target: T1, human neutrophil elastase; assay: Resistance against oxidizer: inhibitory rate against human neutrophil elastase after treatment with chloro-succinate-imide; settings: for Inhibitory Rate against Human Neutrophil Elastase (%): amount of inhibitor 20 p mole
Method: 5 μl of peptide sample, the concentration of which was adjusted appropriately, was mixed with 5 μl of 5 mM chloro-succinate-imide [prepared by dissolving chloro-succinate-imide (Nakaraitesk) in 100 mM Tris-HCl (pH 7.5) buffer containing 500 mM NaCl], then left for 10 minutes at room temperature, and then treated with the oxidizer. Then, 5 μl of human neutrophil elastase, concentration of which was adjusted with said buffer, and 35 μl of said buffer were further added thereto, and left for 15 minutes at 30° C. 450 μl of MeOSuc-Ala-Ala-Pro-Val-pNA (Cambridge Research Bio-Chemicals) solution (containing 1% DMSO), the concentration of which was adjusted to 0.1 mM with said buffer, was added thereto and further reacted for 30 minutes at 30° C. 40 μl of acetic acid was added and absorbance at 405 nm was measured. An inhibition against an activity of human neutrophil elastase in the samples treated with the oxidizer was indicated as an inhibitory rate (%) calculated by the following formula. [formula] A: Absorbance obtained from sample not containing inhibitor. B: Absorbance obtained from sample containing inhibitor.

| Molecule | Ki ([1]; listed as HI-8) [nM] | Ki [1] [nM] | Ki (bovine pancreas trypsin) [nM] | Inhibitory Rate against Human Neutrophil Elastase (%) ([2]; chloro-succinate-imide 0 mM) | Inhibitory Rate against Human Neutrophil Elastase (%) ([2]; chloro-succinate-imide 2.5 mM) | inhibitory activity against human neutrophil elastase under oxidizing conditions (in words) ([2]; treated with oxidizer chloro-succinate-imide) |
| --- | --- | --- | --- | --- | --- | --- |
| R15: Recombinant HI-8 peptide (C-terminal domain Thr78-Leu143 of UTI) expressed by using the plasmid pCD17R15 | ~690 | 690 | 360 | – | – | – |
| Ulinastatin (protein, UniProt P02760 206-352, looked up, Inter-alpha-trypsin inhibitor light chain) Inter-alpha-trypsin inhibitor …: AVLPQEEEGSGGGQLVTEVTKKEDSCQLGYSAGPCMGMTSRYFYNGTSMACETFQYGGCMGNGNNFVTEKECLQTCRTVAACNLPIVRGPCRAFIQLWAFDAVKGKCVLFPYGGCQGNGNKFYSEKECREYCGVPGDGDEELLRFSN | – | 120 | 920 | 72 | 5 | oxidized and inactivated completely |
